Our source for the stoichiometry N values is publication PMC9291269.

Read-outs that look alike come from different tables or passages of the source.

The target of assay [1] is SAA1 secreted by BEAS-2B cells (lipid-free, in culture supernatant) (human (endogenous in BEAS-2B)). The assay can be described thus: immunoblot of HDL-depleted cell culture supernatants. (A western blot detects proteins with antibodies after separation by electrophoresis.)
For assay [2] the target is unchanged. The assay is described as above. This is another data set of the same source.
For assay [3], the target named is T1, recombinant human serum amyloid A1 (rSAA1) (human), P0DJI8.
T1 chain: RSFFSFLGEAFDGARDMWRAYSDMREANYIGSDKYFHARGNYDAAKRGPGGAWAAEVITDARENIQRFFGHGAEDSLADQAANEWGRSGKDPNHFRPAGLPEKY
Kind of assay: immunoblot of cell culture supernatants. To be noted: remark: other sources report otherwise.

Assay [4] addresses T1, recombinant human serum amyloid A1 …. Kind of assay: immunoblot of cell culture supernatants. The settings on record: remark: other sources report otherwise.

As a reminder, the stoichiometry N is the number of molecules, sites or subunits per partner or assembly. Turning to “SAA1 secreted by BEAS-2B cells (lipid-free, in culture supernatant) (natural protein)”, the stoichiometry N in assay [1] is 6; in assay [2] it was 2.

B1: recombinant human serum amyloid A1 (rSAA1), P0DJI8 19-122 (natural protein)
chain: RSFFSFLGEAFDGARDMWRAYSDMREANYIGSDKYFHARGNYDAAKRGPGGAWAAEVITDARENIQRFFGHGAEDSLADQAANEWGRSGKDPNHFRPAGLPEKY
As for B1, the stoichiometry N amounted to 2 in assay [3] and 6 in assay [4].
